Measurements from PMC3430514.
Read-outs that look alike come from different tables or passages of the source.

T1: RIG-I helicase domain (human, UniProt O95786 232-794)
T1 sequence: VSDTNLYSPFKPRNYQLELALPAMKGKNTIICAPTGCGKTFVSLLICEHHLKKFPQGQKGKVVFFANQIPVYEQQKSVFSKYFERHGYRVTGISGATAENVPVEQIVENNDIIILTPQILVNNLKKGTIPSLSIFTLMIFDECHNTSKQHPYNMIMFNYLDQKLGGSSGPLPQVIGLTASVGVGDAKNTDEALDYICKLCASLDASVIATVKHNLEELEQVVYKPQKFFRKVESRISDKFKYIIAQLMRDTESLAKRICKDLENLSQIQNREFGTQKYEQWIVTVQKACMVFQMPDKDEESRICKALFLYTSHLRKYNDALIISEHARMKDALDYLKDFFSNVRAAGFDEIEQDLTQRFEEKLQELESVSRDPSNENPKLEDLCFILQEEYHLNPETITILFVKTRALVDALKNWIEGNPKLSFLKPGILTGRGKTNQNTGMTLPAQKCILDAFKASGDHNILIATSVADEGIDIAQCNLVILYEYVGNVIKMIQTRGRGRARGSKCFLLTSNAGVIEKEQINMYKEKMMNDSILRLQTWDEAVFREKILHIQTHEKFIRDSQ

T2: RIG-I full-length (human, UniProt O95786 1-925)
T2 sequence: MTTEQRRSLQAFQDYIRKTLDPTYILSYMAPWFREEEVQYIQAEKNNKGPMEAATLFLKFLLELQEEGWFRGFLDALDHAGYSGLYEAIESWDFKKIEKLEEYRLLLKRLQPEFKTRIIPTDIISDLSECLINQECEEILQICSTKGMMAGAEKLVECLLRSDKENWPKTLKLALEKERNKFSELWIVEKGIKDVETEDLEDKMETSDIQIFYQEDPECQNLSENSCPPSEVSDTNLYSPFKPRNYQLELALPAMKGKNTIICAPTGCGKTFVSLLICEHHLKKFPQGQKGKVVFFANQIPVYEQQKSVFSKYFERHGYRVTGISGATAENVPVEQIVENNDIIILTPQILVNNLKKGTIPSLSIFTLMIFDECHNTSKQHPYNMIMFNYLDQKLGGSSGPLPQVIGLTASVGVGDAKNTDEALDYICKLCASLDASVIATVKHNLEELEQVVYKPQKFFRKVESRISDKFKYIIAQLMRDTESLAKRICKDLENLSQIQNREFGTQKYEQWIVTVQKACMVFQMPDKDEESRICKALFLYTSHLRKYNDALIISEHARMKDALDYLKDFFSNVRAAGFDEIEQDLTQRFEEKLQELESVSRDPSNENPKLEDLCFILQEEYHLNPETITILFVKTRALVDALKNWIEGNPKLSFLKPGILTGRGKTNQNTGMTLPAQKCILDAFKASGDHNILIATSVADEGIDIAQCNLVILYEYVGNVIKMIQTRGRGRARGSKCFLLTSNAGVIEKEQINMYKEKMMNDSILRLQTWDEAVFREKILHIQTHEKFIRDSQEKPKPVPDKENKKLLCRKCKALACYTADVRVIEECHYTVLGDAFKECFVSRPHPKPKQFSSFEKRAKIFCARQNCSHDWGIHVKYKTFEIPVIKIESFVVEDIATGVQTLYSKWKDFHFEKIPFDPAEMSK

T3: RIG-I RD (repressor domain) (human, UniProt O95786 795-925)
T3 sequence: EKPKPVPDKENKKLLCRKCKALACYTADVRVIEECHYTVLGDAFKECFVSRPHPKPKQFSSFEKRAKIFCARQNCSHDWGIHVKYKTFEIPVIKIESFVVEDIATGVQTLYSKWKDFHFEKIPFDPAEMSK

T4: RIG-I helicase-RD (human, UniProt O95786 232-925)
T4 sequence: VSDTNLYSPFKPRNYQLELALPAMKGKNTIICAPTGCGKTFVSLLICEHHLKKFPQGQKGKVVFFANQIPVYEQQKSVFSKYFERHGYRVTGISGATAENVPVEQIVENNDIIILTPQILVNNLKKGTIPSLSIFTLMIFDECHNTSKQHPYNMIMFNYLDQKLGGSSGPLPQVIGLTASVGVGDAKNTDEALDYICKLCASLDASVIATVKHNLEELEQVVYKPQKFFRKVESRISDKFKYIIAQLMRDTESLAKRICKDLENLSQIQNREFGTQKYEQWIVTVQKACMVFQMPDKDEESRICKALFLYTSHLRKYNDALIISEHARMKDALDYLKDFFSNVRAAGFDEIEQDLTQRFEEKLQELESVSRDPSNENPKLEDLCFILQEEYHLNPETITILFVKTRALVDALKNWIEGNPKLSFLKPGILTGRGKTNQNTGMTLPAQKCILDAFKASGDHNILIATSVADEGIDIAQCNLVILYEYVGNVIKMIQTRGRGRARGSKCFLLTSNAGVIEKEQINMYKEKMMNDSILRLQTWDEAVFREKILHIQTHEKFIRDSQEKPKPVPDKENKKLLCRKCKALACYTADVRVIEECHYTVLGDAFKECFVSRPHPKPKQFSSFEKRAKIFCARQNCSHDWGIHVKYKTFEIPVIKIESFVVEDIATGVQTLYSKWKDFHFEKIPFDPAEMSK

B1: 14bp dsRNA-F (dsRNA)
RNA 1: GGAGAGAACCGCCU
RNA 2: AGGCGGUUCUCUCC
modifications: 5'-OH
B2: 14bp pal dsRNA (dsRNA)
RNA 1: CGACGCUAGCGUCG
RNA 2: CGACGCUAGCGUCG
modifications: 5-iodouridine derivative also crystallized

Assays:
RIG-I helicase domain [1] = target: T1, RIG-I helicase domain; experiment: fluorescence anisotropy
RIG-I full-length = target: T2, RIG-I full-length; experiment: fluorescence anisotropy
[2] = target: T3, RIG-I RD (repressor domain); experiment: fluorescence anisotropy
RIG-I helicase domain [3] = target: T1, RIG-I helicase domain; experiment: fluorescence anisotropy; remark: listed apart in the source
RIG-I helicase-RD = target: T4, RIG-I helicase-RD; experiment: X-ray crystallography

Row | Binder | Kd (RIG-I helicase domain [1]) | Kd (RIG-I full-length) | Kd [2] | Kd (RIG-I helicase domain [3]) | binding result (RIG-I helicase-RD)
1 | B1 | 1300 nM | 1.2 nM | 2.6 ± 1.2 nM | 436 ± 121 nM | –
2 | B2 | – | – | – | – | binds
